Test results reported in the DeepSol protein solubility set.

test: soluble on expression in E. coli; label from the status in PepcDB or PDB records

Sequence | soluble on expression in E. coli
MDRMYEQNQMPHNNEAEQSVLGSIIIDPELINTTQEVLLPESFYRGAHQHIFRAMMHLNEDNKEIDVVTLMDQLSTEGTLNEAGGPQYLAELSTNVPTTRNVQYYTDIVSKHALKRRLIQTADSIANDGYNDELELDAILSDAERRILELSSSRESDGFKDIRDVLGQVYETAEELDQNSGQTPGIPTGYRDLDQMTAGFNRNDLIILAARPSVGKTAFALNIAQKVATHEDMYTVGIFSLEMGADQLATRMICSSGNVDSNRLRTGTMTEEDWSRFTIAVGKLSRTKIFIDDTPGIRINDLRSKCRRLKQEHGLDMIVIDYLQLIQGSGSRASDNRQQEVSEISRTLKALARELECPVIALSQLSRGVEQRQDKRPMMSDIRESGSIEQDADIVAFLYRDDYYNRGGDEDDDDDGGFEPQTNDENGEIEIIIAKQRNGPTGTVKLHFMKQYNKFTDIDYAHADMM | not soluble
MDRPVRVLFVCLGNICRSPMAEGIFRKLLKERGLEDRFEVDSAGTGAWHVGEPMDPRARRVLEEEGAYFPHVARRLTREDVLAYDHILVMDRENLEEVLRRFPEARGKVRLVLEELGGGEVQDPYYGDLEDFRKVYWTLEAALQAFLDRHGSPSPAAEGRA | soluble
MDSADPQLNRFLQQLQAETQRQKFTEQVHTLTGRCWDVCFADYRPPSKMDGKTQTCIQNCVNRMIDASNFMVEHLSKMNGGHV | not soluble
MDTAGDTKTTDDGGVVNITYMHRLPDSEGMTLVNDIVAKWNKQHPDIQVKATKFDGKASDMIKKLETDVKSGEAPDLAQVGYAELPEVFTKGLLQDVTQYAEQYKNDFASGPYSLVQVGGKAYGLPQDTGPLVYFYNKAEFEKLGITEIPQTADEFIAAAKTAAAAGKYIMSYQPDEAGNMISGLAGASGGWYKVKGDSWVVNTETDGSKATADFYQQLLDAKAATTNPRWDPSFDASIKDGSLIGTVAAAWEAPLFMTSSGGTGSGEWQVAQLGDWFGNAGKTGPDGGSAVAVLKNSKHPKEAMEFLDWFNTQVPDLVSQGLVPAATTEDAETPSEWSTFFGGQDIMKEFKTANNNMGDFTYMPGFSAVAAKMNETAAKATDGSGKVADIFSDAQTTSVDTLKNFGLSVSE | soluble
MDTEPIQIDSDDSFDAGAPTSSHTMDRKSIIEKYQKLKEESKKLDDLAVEVRSLFMICKQMEECYTKRIDRIVATYGEIRYLHDGTILLLVTIHNITNQPMIDWVISINPTSIFPNSSSSCCQTINVGSLLPGIRKTFQCQLTCKDPPVLLQLSLLRTYQLGGIVKCFKVKLDPILVTAWNQAQRVERKNMETSFTSTIRLPNSLINLLSGSPDTVISVPQVFKSILNVPNVQEDHIVIKMSSAFVVGATGAVGSELVKLLAESTKFSKVVVLARRPVDGATGDKLIQKTVDFDKLEENAEDIQGVDVAFCALGTTRGKSGADGFYKVDHDYVMSAAKMAKENGVKQFVLVSSVGADASSRFLYPKTKGEVEKEIGELNFEKFVIMRPGLIEAKRPEFRIGEFLGKIVTAPLGLFSNRFSSSATAIAQAMINATQTEETGNQIWNNSKIVEESKKYTA | not soluble
MDTLDGLKTVVAVVETNSFTAASDRLGISKALVSKYVGEVENQLGIRLFNRTTRQLALTDSGRRYYEEAIILLEQFSAMVDNVTGEQTAPRGLLRISAPVTFGEMRLAPLLPKFIALYPDLTVELVLTNGAIDMLEEGIDVRLRIGGVDDSNMIARHLTNFPLVLSASPNYAQTQGLPTTPEQLGEHHCIIDSNFRIGKQWPFISPKGRAETINVQSGLAVNSPQAVREIAIADGGIAMTPNFIVEDALADGRLLRVMPEYTTLEFGLFAIYPHRKYVARKVRCFIDFVLEQFSKK | not soluble
MDTLRYLTGYPPAVLEQVRALIAQDKLGAVLAQRYPERHTVRTDRQLYDYVKEMKERYMRSSPTLHKAIYDNHLQVVKHALGTHTAISRVHGSRLKASREIRIAAIFRDAPAPFLQMIVAHELAHLKEPEHDKAFYQLCHHMAPDYHQLEFDLRLYLTQLALSPRDLEHHHHHH | soluble
MDTMAKINQFRDERNWRPHHNEKDLALSICLEAAELLELFQWKTAEEGIKQEERIKEELADVLIYSYMMADNLGFDLDEIIEEKLKKNALKYPVPH | not soluble
